Experimental data as given in patent US6908994 (TEXAS A AND M UNIVERSITY SYSTEM, dated 2005).
Read-outs that look alike come from different tables or passages of the source.

Columns and labels:
[1] = target: Collagen type IV (CIV); test: cell-based or functional assay
[2] = target: Mouse laminin (isolated from the EHS-sarcoma) (mouse) (UniProt P19137); test: cell-based or functional assay
[3] = target: Bovine serum albumin (BSA) (bovine) (UniProt P02769); test: cell-based or functional assay
[4] = target: Collagen type IV (CIV); test: cell-based or functional assay; remark: listed apart in the source
[5] = target: Ace of E. faecalis strain OG1RF (native; on 46°C grown cells and in mutanolysin extracts) (Enterococcus faecalis strain OG1RF); test: cell-based or functional assay
[6] = target: Ace of E. faecalis strain V583 (native; on cells and in mutanolysin extracts) (Enterococcus faecalis strain V583); test: cell-based or functional assay
[7] = target: Ace of E. faecalis strain MC02152 (native; on cells and in mutanolysin extracts) (Enterococcus faecalis strain MC02152); test: cell-based or functional assay
[8] = target: Ace of E. faecalis strain OG1RF (native; on 46°C grown cells and in mutanolysin extracts) (Enterococcus faecalis strain OG1RF); test: cell-based or functional assay; remark: listed apart in the source
[9] = target: Mouse laminin (isolated from the EHS-sarcoma) (mouse) (UniProt P19137); test: ELISA, 10 µg immobilised LN, bound His-tagged Ace A detected with penta-His monoclonal antibody, OD450
[10] = target: Collagen type I (CI); test: ELISA, 10 µg immobilised CI, bound His-tagged Ace A detected with penta-His monoclonal antibody, OD450
[11] = target: Mouse laminin (isolated from the EHS-sarcoma) (mouse, UniProt P19137 25-3083; P02469 22-1786; P02468 34-1607); test: cell-based or functional assay
[12] = target: T1, Bovine Type I collagen (Collagen Corp.), immobilised on a CM5 chip (bovine, UniProt P02453 162-1217; P02465 80-1117); test: SPR (BIAcore 1000), Scatchard analysis of equilibrium responses, 1-70 µM Ace A over immobilised collagen; three measurements
T1 construct: Bought, predissolved in 0.1 M HCl
T1 sequence (P02453 162-1217 limits assumed, chain 1 of 2): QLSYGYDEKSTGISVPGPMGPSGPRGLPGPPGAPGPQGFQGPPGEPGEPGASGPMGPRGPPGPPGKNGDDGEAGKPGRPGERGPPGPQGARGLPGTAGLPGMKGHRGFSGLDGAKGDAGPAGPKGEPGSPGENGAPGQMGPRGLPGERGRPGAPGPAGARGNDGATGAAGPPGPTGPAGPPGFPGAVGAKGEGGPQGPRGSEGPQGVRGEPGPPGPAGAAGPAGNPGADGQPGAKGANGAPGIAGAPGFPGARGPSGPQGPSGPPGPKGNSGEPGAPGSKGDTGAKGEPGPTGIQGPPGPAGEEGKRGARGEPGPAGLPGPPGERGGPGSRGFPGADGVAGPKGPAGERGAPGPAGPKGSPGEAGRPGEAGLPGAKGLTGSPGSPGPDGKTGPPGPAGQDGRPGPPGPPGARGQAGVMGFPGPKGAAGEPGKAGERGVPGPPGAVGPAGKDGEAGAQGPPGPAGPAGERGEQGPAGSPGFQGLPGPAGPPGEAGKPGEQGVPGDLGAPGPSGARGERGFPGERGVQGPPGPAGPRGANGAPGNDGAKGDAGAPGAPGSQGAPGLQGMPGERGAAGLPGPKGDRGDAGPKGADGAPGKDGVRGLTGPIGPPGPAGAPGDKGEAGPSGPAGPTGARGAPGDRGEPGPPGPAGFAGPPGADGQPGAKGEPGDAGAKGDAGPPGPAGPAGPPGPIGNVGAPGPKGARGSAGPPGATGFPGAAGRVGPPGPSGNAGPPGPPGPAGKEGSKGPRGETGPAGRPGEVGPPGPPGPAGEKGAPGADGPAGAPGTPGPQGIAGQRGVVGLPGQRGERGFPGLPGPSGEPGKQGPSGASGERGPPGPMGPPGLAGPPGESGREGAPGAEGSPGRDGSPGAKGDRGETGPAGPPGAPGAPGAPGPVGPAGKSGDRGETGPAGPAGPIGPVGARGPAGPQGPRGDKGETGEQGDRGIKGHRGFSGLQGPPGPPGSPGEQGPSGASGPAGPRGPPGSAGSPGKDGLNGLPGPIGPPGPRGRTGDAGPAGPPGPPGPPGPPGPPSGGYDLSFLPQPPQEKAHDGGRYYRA
T1 sequence (P02465 80-1117 limits assumed, chain 2 of 2): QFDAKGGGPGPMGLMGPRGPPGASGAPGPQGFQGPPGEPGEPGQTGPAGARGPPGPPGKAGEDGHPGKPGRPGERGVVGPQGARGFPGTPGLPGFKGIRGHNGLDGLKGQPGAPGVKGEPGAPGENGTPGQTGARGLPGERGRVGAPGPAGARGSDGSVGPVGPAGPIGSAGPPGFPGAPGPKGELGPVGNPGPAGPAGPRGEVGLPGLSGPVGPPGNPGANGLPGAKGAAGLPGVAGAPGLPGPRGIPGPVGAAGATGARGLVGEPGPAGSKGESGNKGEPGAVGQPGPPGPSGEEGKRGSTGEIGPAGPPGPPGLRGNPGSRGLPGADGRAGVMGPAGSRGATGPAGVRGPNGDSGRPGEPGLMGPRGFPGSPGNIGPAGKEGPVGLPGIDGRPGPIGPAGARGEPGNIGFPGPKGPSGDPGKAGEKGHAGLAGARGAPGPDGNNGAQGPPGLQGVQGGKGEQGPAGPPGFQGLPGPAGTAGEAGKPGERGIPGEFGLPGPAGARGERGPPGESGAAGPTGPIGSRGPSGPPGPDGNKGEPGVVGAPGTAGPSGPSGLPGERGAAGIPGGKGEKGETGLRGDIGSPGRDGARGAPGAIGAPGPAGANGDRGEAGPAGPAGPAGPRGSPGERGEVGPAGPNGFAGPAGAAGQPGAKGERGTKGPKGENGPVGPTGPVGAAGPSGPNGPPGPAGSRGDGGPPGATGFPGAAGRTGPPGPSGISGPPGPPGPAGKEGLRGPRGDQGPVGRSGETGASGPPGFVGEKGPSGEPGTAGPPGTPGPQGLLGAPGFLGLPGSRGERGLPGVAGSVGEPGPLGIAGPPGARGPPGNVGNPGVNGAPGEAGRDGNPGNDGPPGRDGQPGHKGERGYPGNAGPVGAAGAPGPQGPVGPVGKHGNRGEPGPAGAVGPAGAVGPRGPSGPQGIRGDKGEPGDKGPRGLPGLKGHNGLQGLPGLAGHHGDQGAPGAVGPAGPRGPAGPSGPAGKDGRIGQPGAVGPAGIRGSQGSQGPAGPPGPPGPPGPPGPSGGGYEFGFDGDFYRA

Sequence of Bovine serum albumin (BSA) (bovine) (P02769 25-607 limits assumed): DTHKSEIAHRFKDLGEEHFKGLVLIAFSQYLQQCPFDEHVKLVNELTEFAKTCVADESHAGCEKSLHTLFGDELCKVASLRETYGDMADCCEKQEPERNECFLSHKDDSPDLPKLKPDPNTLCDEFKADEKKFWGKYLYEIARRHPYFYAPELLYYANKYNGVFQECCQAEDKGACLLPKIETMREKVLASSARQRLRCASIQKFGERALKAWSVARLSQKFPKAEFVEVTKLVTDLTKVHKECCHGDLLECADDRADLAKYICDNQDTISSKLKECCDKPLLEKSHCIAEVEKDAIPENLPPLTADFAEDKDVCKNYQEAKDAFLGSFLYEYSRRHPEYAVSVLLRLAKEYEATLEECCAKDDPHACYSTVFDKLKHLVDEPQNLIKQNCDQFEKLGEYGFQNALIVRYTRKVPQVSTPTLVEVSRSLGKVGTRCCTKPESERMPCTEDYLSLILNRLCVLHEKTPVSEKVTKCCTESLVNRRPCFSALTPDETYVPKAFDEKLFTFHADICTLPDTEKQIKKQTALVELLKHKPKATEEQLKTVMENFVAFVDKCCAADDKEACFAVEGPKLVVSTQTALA

With “Ace of E. faecalis strain END6 (mutanolysin extract)” the % adherence of 46°C grown END6 to CIV [1] was greater than 20% and the % adherence of 46°C grown END6 to LN [2] was greater than 20%.

Molecule “Ace of E. faecalis strain JH2-2 (mutanolysin extract)” has a % adherence of 46°C grown JH2-2 to CIV [1] greater than 20% and a % adherence of 46°C grown JH2-2 to LN [2] greater than 20%.

“Ace of E. faecalis strain MC02152 (native; on cells and in mutanolysin extracts)” gave a % of MC02152 cells bound to BSA; no IgG (% of cells bound) [3] of 0.6, a % adherence of 46°C grown MC02152 to CIV [1] greater than 20% and a % of 37°C grown MC02152 cells bound to CIV [1] of 8.9%. The % of 46°C grown MC02152 cells bound to CIV [1] was 38%, the % of MC02152 cells bound to CIV; no IgG (% of cells bound) [1] was 27.7 and the % adherence of 46°C grown MC02152 to LN [2] was greater than 20%. The % of 37°C grown MC02152 cells bound to LN [2] was 7.1%, the % of 46°C grown MC02152 cells bound to LN [2] was 41% and the % of MC02152 cells bound to LN; no IgG (% of cells bound) [2] was 26.7.

For “Ace of E. faecalis strain MD9 (mutanolysin extract)”, the % adherence of 46°C grown MD9 to CIV [1] was greater than 20% and the % adherence of 46°C grown MD9 to LN [2] was greater than 20%.

With “Ace of E. faecalis strain OG1RF (native; on 46°C grown cells and in mutanolysin extracts)” the % of OG1RF cells bound to CIV; no IgG (% of cells bound) [1] was 27.7, the fold decrease of adherence to CIV in ace mutant TX5256 against OG1RF [1] was 27.4 fold and the % of OG1RF cells bound to CIV; no IgG (% of cells bound) [4] was 29.6.

With “Ace of E. faecalis strain V583 (native; on cells and in mutanolysin extracts)” the % of V583 cells bound to BSA; no IgG (% of cells bound) [3] was 0.7, the % adherence of 46°C grown V583 to CIV [1] was greater than 20% and the % of V583 cells bound to CIV; no IgG (% of cells bound) [1] was 38.1. For the same molecule, the % adherence of 46°C grown V583 to LN [2] was greater than 20% and the % of V583 cells bound to LN; no IgG (% of cells bound) [2] was 29.4.

“IgGs purified from pooled normal human sera collected from healthy volunteers (antibody)” was tested, and the % of OG1RF cells bound to BSA; NHS IgG 0.1 mg/ml (% of cells bound) [5] was 0.9, the % of OG1RF cells bound to BSA; NHS IgG 1 mg/ml (% of cells bound) [5] was 0.7 and the % of OG1RF cells bound to BSA; NHS IgG 2 mg/ml (% of cells bound) [5] was 0.7. For the same molecule, the % of OG1RF cells bound to BSA; NHS IgG 4 mg/ml (% of cells bound) [5] was 0.8, the % of OG1RF cells bound to CIV; NHS IgG 0.1 mg/ml (% of cells bound) [5] was 24.8 and the % of OG1RF cells bound to CIV; NHS IgG 1 mg/ml (% of cells bound) [5] was 25.6. The % of OG1RF cells bound to CIV; NHS IgG 2 mg/ml (% of cells bound) [5] was 24, the % of OG1RF cells bound to CIV; NHS IgG 4 mg/ml (% of cells bound) [5] was 25.6 and the % of OG1RF cells bound to LN; NHS IgG 0.1 mg/ml (% of cells bound) [5] was 31.5. The % of OG1RF cells bound to LN; NHS IgG 1 mg/ml (% of cells bound) [5] was 31.3, the % of OG1RF cells bound to LN; NHS IgG 2 mg/ml (% of cells bound) [5] was 31.3 and the % of OG1RF cells bound to LN; NHS IgG 4 mg/ml (% of cells bound) [5] was 31.4.

In the case of “Preimmune rabbit serum and IgGs purified from it (Example 2) (antibody)”, the % of V583 cells bound to BSA; PI IgG 20 µg/ml (% of cells bound) [6] is reported as 0.6, the % of V583 cells bound to CIV; PI IgG 20 µg/ml (% of cells bound) [6] is reported as 33.6 and the % of V583 cells bound to LN; PI IgG 20 µg/ml (% of cells bound) [6] is reported as 27.6. For the same molecule, the % of MC02152 cells bound to BSA; PI IgG 20 µg/ml (% of cells bound) [7] was 0.5, the % of MC02152 cells bound to CIV; PI IgG 20 µg/ml (% of cells bound) [7] was 26.5 and the % of MC02152 cells bound to LN; PI IgG 20 µg/ml (% of cells bound) [7] was 23.5. The % of OG1RF cells bound to BSA; PI IgG 0.001 µg/ml (% of cells bound) [8] was 0.7, the % of OG1RF cells bound to BSA; PI IgG 0.01 µg/ml (% of cells bound) [8] was 0.1 and the % of OG1RF cells bound to BSA; PI IgG 0.1 µg/ml (% of cells bound) [8] was 0.6. The % of OG1RF cells bound to BSA; PI IgG 1 µg/ml (% of cells bound) [8] was 0.8, the % of OG1RF cells bound to BSA; PI IgG 10 µg/ml (% of cells bound) [8] was 0.6 and the % of OG1RF cells bound to BSA; PI IgG 100 µg/ml (% of cells bound) [8] was 0.6. For the same molecule, the % of OG1RF cells bound to CIV; PI IgG 0.001 µg/ml (% of cells bound) [8] was 30.3, the % of OG1RF cells bound to CIV; PI IgG 0.01 µg/ml (% of cells bound) [8] was 28.8 and the % of OG1RF cells bound to CIV; PI IgG 0.1 µg/ml (% of cells bound) [8] was 28.9. It also gave a % of OG1RF cells bound to CIV; PI IgG 1 µg/ml (% of cells bound) [8] of 25.9, a % of OG1RF cells bound to CIV; PI IgG 10 µg/ml (% of cells bound) [8] of 26.6 and a % of OG1RF cells bound to CIV; PI IgG 100 µg/ml (% of cells bound) [8] of 26. The % of OG1RF cells bound to LN; PI IgG 0.001 µg/ml (% of cells bound) [8] was 30.2, the % of OG1RF cells bound to LN; PI IgG 0.01 µg/ml (% of cells bound) [8] was 31.4 and the % of OG1RF cells bound to LN; PI IgG 0.1 µg/ml (% of cells bound) [8] was 29.1. The % of OG1RF cells bound to LN; PI IgG 1 µg/ml (% of cells bound) [8] was 26.4, the % of OG1RF cells bound to LN; PI IgG 10 µg/ml (% of cells bound) [8] was 28.3 and the % of OG1RF cells bound to LN; PI IgG 100 µg/ml (% of cells bound) [8] was 32.

With “Recombinant Ace A domain of E. faecalis OG1RF (His-tagged, pBAD/HisA, TX5254)” the EC50 (read off the curve) [9] was 7 µM and the EC50 (read off the curve) [10] was 10 µM.

B1: Ace of E. faecalis strain OG1RF (native; on 46°C grown cells and in mutanolysin extracts) (other)
chain: ELSKSSIVDKVELDHTTLYQGEMTSIKVSFSDKENQKIKPGDTITLTLPDALVGMTENDGSPRKINLNGLGEVFIYKDHVVATFNEKVESLHNVNGHFSFGIKTLITNSSQPNVIETDFGTATATQRLTIEGVTNTETGQIERDYPFFYKVGDLAGESNQVRWFLNVNLNKSDVTEDISIADRQGSGQQLNKESFTFDIVNDKETKYISLAEFEQQGYGKIDFVTDNDFNLRFYRNKARFTSFIVRYTSTITEAGQHQATFENSYDINYQLNNQDATNEKNTSQVKNVFVEGEASGNQNVEMPTEESLDIPLETIDEWEPKTPTSEQATETSEKTGATETAESSQPEVHVSPTEEENPDEGGTLGTIEPIIPEKPSVTTEENGVTETAEGSQPEVHVSPTEEENPDESETLGTITPIIPEKPSVTTEENGVTETAEGSQPEVHVSPTEEENPDESETLGTITPIIPEKPSVTTEENGATETAESSQPEVHVSPAEEENPDESETLGTITPIIPEKPSVTTEENGTTETAESSQPEVHVSPTEEENLDESETLGTIEPIIPEKPSVTTEENGTTETAESSQPEVHVSPTKEITTTEKKQPSTETTVEKNKNVTSKNQPQILNAPLNTVKNEGSPQLAPQLLSEPIQKLNEANGQRELPKT
In the case of B1, the “fold decrease of adherence to LN in ace mutant TX5256 against OG1RF” value [11] is reported as 32.9 fold.

B2: Recombinant E. faecalis EF1 Ace A domain (N-terminal His6-tag fusion, from pQE-30) (other)
chain: MRGSHHHHHHGSELSKSSIVDKVELDHTTLYQGEMTSIKVSFSDKENQKIKPGDTITLTLPDELVGMTENDGSPRKINLNGLGEVFIYKDHVVATFNEKVESLHNVNGHFSFGIKTLITNSSQPNVIETDFGTATATQRLTIEGVTNTETGQIERDYPFFYKVGDLAGESNQVRWFLNVNLNKSDVTEDISIADRQGSGQQLNKESFTFDIVNDKETKYISLAEFEQQGYGKIDFVTDNDFNLRFYRDKARFTSFIVRYTSTITEAGQHQATFENSYDINYQLNNQDATNEKNTSQVKNVFVEGEASGNQNVEMPTEESLDIPLETIEEWEPKTPTSEQATETSEKTD
notes: Residues 32-367 are counted from nucleotides 94-1101; also called recombinant Ace A domain
Work on B2 yielded a Kd [12] of 48 µM.
